Laboratory results taken from publication PMC5354511, “Autophosphorylation-based Calcium (Ca^2+) Sensitivity Priming and Ca^2+/Calmodulin Inhibition of Arabidopsis thaliana Ca^2+-dependent Protein Kinase 28 (CPK28)*^([image sbox.jpg])^♦” (The Journal of Biological Chemistry, 2017).

Biological target: T1, recombinant CaM6 (untagged) (UniProt Q03509 1-149)
T1 construct: calmodulin 6 (CaM6), 'a conserved CaM isoform'; recombinant, untagged; also called Ca2+/CaM; source: E. coli NiCO (DE3), purified (heat step, phenyl-Sepharose)
Assay: native gel or EMSA; CaM (240 pmol) with different amounts of LL22 or pLL22 peptide in the ratios indicated, 20 μl, 60 min, then native PAGE
Conditions: both partners purified

LRQFVRYSRLKQFALRALASTL (source: synthetic peptide (LifeTein)) [LL22 peptide (CPK28 autoinhibitory junction)]
stoichiometry N: 1
